# Fewer inactive variants are shown than the library holds.
# B1: TPR 5TU (parent)
# chain: GGAUCUUCUCGAUCUAACAAAAAAGACAAAUCUGCCACAAAGCUUGAGAGCAUCUUCGGAUGCAGAGGCGGCAGCCUUCGGUGGCGCGAUAGCGCCAACGUUCUCAACUAUGACACGCAAAACGCGUGCUCCGUUGAAUGGAGUUUAUCAUG
# Variants of: B1
# Experiment: polymerase ribozyme fitness, log enrichment relative to wild type (log ratio); higher = more active; in vitro selection for triplet polymerase activity
# Procedure, shortened: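 PCR was used to build mutant libraries for each subunit of a heterodimeric triplet polymerase ribozyme, which were then transcribed. A single in vitro selection round, in triplicate, used a frozen incubation at −7 °C and recovered extended constructs by gel excision, streptavidin beads and RT-PCR. Fitness is the logarithm of genotype enrichment relative to wild-type enrichment, averaged over replicates with inverse-variance weights. The logarithm is base 2, and after Illumina sequencing only genotypes with ≥10 input reads and ≥1 read per output were kept.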
row,Variant,polymerase ribozyme fitness (log ratio)
1,GGAUCUUCUCGAUCUAACAAAAAAGACAAAUCUGCCACAAAGCUUGAGAGCAUCUUCUAAUGCAGAGGCGGCAGCCUUCGGUGGCGCGAUAGCGCCAACGUUCUCAACUAUGACACGCAAAACGCGUGCUCCGUUGAAUGGAGUUUAUCAUG [G58U G59A],0.429
2,GGAUCUUCUCGAUCUAACAAAAAAUACAAAUCUGCCACAAAGCUUGAGAGCAUCUUCGGAUGCAGAGGCGGCAGCCUUCGGUAGCGCGAUAGCGCCAACGUUCUCAACUAUGACACGCAAAACGCGUGCUCCGUUGAAUGGAGUUUAUCAUG [G25U G83A],-3.4
3,GGAUCUUCUCGAUCUAACAUAAAAGACAAAUCUGCCACCAAGCUUGAGAGCAUCUUCGGAUGCAGAGGCGGCAGCCUUCGGUGGCGCGAUAGCGCCAACGUUCUCAACUAUGACACGCAAAACGCGUGCUCCGUUGAAUGGAGUUUAUCAUG [A20U A39C],-3.84
4,GGAUCUUCUCGAUCUAACAAAAAAGACAAAUCUGCCACAACGCUUGAGAGCAUCUUCGGAUGCAGAGGCGGCAGCCUUCGGUGGCGUGAUAGCGCCAACGUUCUCAACUAUGACACGCAAAACGCGUGCUCCGUUGAAUGGAGUUUAUCAUG [A41C C87U],-1.35
5,GGAUCUUCUCGAUCUAACAAAAAAGACAAAUCUGCCACAAAGCUUGAGAGCAUCAUCGGAUGCAGAGGCGGCAGCCUUCGGUGGAGCGAUAGCGCCAACGUUCUCAACUAUGACACGCUAAACGCGUGCUCCGAUGAAUGGCGUUUAUCAUG [U55A C85A A119U U134A A142C],≤ -4.2
6,GGAUCUUCUCGAUCUAACAAAAAAGACAAAUCUGCCACAAAGCUUGAGAGCAUCUUCGGAUGCAGAGGCGGCAGCCUUCGGUGGCGCGAUAGCGCAAACGUUCUCAACUAUGACACGCAAAACGCGUGCUCCGUUGAAUGGAGUUUAUCACG [C96A U151C],-3.24
7,GGAUCUUCUCGAUCUAACAAAAAAGAUAAAUCUGCCACAAAGCUUGAGAGCAUCUUCGGAUGCAGAGGCGGCAGCCUUCGGUGGCGCGAUAUCGCCAACAUUCUCCACUAUGACACGCAAAACCCGUGCUCCGUUGAGUGGAGUUUAUCAUG [C27U G92U G100A A106C G124C A138G],≤ -4.2
8,GGAUCUUCUCGAUCUAUCAAAAAAGACAAUUCUGCCACAAAACUUGAGAGCAUCUUCGGAUGCAGAGGCGGCAGCCUUCGGUGGCGCGAUAGCGACAACGUUCUCAACUAUGACACGCAAAACGCGUGCUCCGUUGAGUGGAGUUUAUCAUG [A17U A30U G42A C95A A138G],≤ -4.2
9,GGAUCUUCUCGAUCUAACAAAAAAGACAAAUCUGCCACGAAGCUUGAGAGCAUCUUCGGAUGCAGAGGCGGCAGCCUUCGGUGACGCGAUAGCGCCAACGUUCUCAACUAUGACAUGCAAAACGCGUGCUCCGUUGAAUGGAGUUUAUCAUG [A39G G84A C116U],-1.91
10,GGUUCUUCUCGAUCUAACAUAAAAGACAAAUCUGCCACAAGGCUUGAGGGCAUCUUCGGAUGCUGAGGCGGCAGCCUUCGGUGGCGCGAUAGCGCCAACGUUCUCAAGUAUGACACGCAAAACGCGUGCUCCGUUGAAUGGAGUUUAUCAUG [A3U A20U A41G A49G A64U C108G],≤ -4.2
11,GGAUCUUCUCGAUCUAACAAAAAAGACAAAUCUGCCAGAAAGCUUGAGAGCAUCUUCGGAUGCAGAGGCGGCAGCCUUCGGUGGCGCGAUAGCGCCAACGUUCUCAACUAUGACACGCAAAACGCGUGCUCCGUUGAAUGGCGUUUAUCAUG [C38G A142C],-1.24
12,GGAUCUUCUCAAUCUAACAAAAAAGACAAAUCUGCCACAAAGCUUGAGAGCAUCAUCGGAUGCAGAGGCGGCAGCCUUCGGUGGCGCGAUAGCGCCAACGGUCUCAACUAUGACACGCAAAACGCGUGCUCCGUUGAAUGGAGUUUAUCAUG [G11A U55A U101G],-1.01
13,GGAUCUUCUCGAUCUAACAAAAAAGACAAAUCUGCCACAAAGCUUGAGAGCGUCUUCGGAUGCAGAGGCGGCAGCCUUCGGUGUCGCGAUAGCGCCAACGUUCUCAACUAUGACACGCAAAACGCGUGCUCCGUUGAAUGGAGGUUAUCAUG [A52G G84U U144G],-1.56
14,GGAUCUUUUCGAUCUAACAAAAAUGACAAUUCUGCCACAAAGCUUGAGAGCAUCUUCGGAUGCAGAGGCGGCAGCCUUCGGUGGCGCGAAACCGCCAACGUUCUCAACUAUGACACGCAAAACGCGUGCUCCGUUGAAUGGAGUUUAUCAUG [C8U A24U A30U U90A G92C],≤ -4.2
15,GGAUCUUCUAGAUCUAACAAAACAGACAAAUCUGCCACAAAGCUUGAGAACAUCUUCGGAUGCAGAGGCGGCAGGCUUCGGUGGCGCGAUAGCGUAAACGUUCUCAACUAUGACACGCAAAAGGCGUGCUCCGUUGAAUGGAGUUUAUCAUG [C10A A23C G50A C75G C95U C96A C123G],≤ -4.2
16,GGGUCUUCUAGGUCUAACAAAAAAGACAAAUCUGCCACAAAGCUUGAGAGCAUCUUCGUAUGCAGGGGCGGGAGCCUUCGGUGGUGCGAUAGCGCCAACGUUCUCAACUAUGACACGCAAAACGCGUGCUCCGUUGAAUGGAGUUUAUCAUG [A3G C10A A12G G59U A66G C72G C85U],≤ -4.2
17,GGAUCUUCUCGAUCUAAUAAAAAAGACAAAUCUGCCACAAAGCUUGGGAGCUUCUUCGGAUGCAGAGUCGGCAGCCUUAGGUGGCGCGAUAGUGCCAAAGUUCUCAACUAUGACACGCAAAACGCGUGCUCCGUUGAAUGCGUUUUAUCAUG [C18U A47G A52U G68U C79A C93U C99A G141C A142G G143U],≤ -4.2
18,GGAUCUUCUCGAUCUACCAAAAAAGACAAAUCUGCCACAAAGCUUGAGAGCAUCUUCGGAUGCAGAGGCGGCAGCCUUCGGUGGCGCGAUAGCGCCAACGUACUCAACUAUGACACGCAAAACGCGUGCUCCGUUGAAUGGAGUUUAUCAUG [A17C U102A],-0.663
19,GGAUCUUCUCGAUCUAACAAAAAAGACAAAUCUGCCACAAUGCUUGAGAGCAUCUUCGGAUGCAGAGGCGGCAGCCUUCGGUGGCGCGAUAGCGCCAACGUUCUCAACUAUGACACGCAAAACGCGUGCUCCGUUGAAUGGAGGUUAUCAUA [A41U U144G G152A],-1.09
